Tests used:
[1] = biological target: Shewanella oneidensis diheme cytochrome c peroxidase, maltose-binding protein fusion (Shewanella oneidensis); assay: SEC
[2] = biological target: Shewanella oneidensis diheme cytochrome c peroxidase, tag-free (Shewanella oneidensis); assay: SEC

Work on “Shewanella oneidensis diheme cytochrome c peroxidase, maltose-binding protein fusion (enzyme)” yielded a stoichiometry N [1] of 2.

For “Shewanella oneidensis diheme cytochrome c peroxidase, tag-free (enzyme)”, the stoichiometry N [2] was 2.

Source: article PMC3724350
